Source: patent US20230372448A1, “THERAPEUTIC USE OF LONG-ACTING CONJUGATE OF TRIPLE AGONIST ACTING ON ALL OF GLUCAGON, GLP-1 AND GIP RECEPTORS AGAINST MULTIPLE SCLEROSIS” (HANMI PHARM. CO. ,LTD., priority 2020, published 2023)
Positions of bridges follow the written chain, without caps; N, C: chain ends. Non-standard residues stand in square brackets, D forms with d. No end group written: not given here. *: point of attachment. Acetyl(2-(4-imidazolyl)) = O=C(Cc1c[nH]cn1)*; Aib = CC(C)(N)C(=O)O

B1: triple agonist of SEQ ID NO: 87 (peptide)
peptide: {Acetyl(2-(4-imidazolyl))}-[Aib]QGTFTSDYSIAMDEIHQKDFVNWLLNTC
modifications: bridge 15-19; not fully specified
B2: triple agonist of SEQ ID NO: 73 (peptide)
peptide: {Acetyl(2-(4-imidazolyl))}-[Aib]QGTFTSDYSKYLDECRAKEFVQWLLDHHPSSGQPPPS
modifications: bridge 15-19; not fully specified
B3: triple agonist of SEQ ID NO: 92 (peptide)
peptide: {Acetyl(2-(4-imidazolyl))}-[Aib]QGTFTSDYSIAMDEIHQKDFVNWLLAQKC
modifications: bridge 15-19; not fully specified
B4: triple agonist of SEQ ID NO: 88 (peptide)
peptide: {Acetyl(2-(4-imidazolyl))}-[Aib]QGTFTSDYSKYLDEKRQKEFVQWLLNTKC
modifications: bridge 15-19; not fully specified
B5: triple agonist of SEQ ID NO: 72 (peptide)
peptide: Y[Aib]QGTFTSDCSKYLDERAAKDFVQWLLDHHPSSGQPPPS
modifications: bridge 16-20; not fully specified
B6: triple agonist of SEQ ID NO: 75 (peptide)
peptide: Y[Aib]QGTFTSDYSKYLDEKAAKEFVQWLLDHHPSSGQPPPSC
modifications: bridge 16-20; not fully specified
B7: triple agonist of SEQ ID NO: 82 (peptide)
peptide: {Acetyl(2-(4-imidazolyl))}-[Aib]QGTFTSDYSKYLDEKRQKEFVQWLLDTC
modifications: bridge 15-19; not fully specified
B8: triple agonist of SEQ ID NO: 74 (peptide)
peptide: {Acetyl(2-(4-imidazolyl))}-[Aib]QGTFTSDYSKCLDEKRAKEFVQWLLDHHPSSGQPPPS
modifications: bridge 15-19; not fully specified
B9: triple agonist of SEQ ID NO: 9 (peptide)
peptide: H[Aib]QGTFTSDVSKYLDGQAAQEFVAWLLAGC
modifications: not fully specified
B10: triple agonist of SEQ ID NO: 93 (peptide)
peptide: {Acetyl(2-(4-imidazolyl))}-[Aib]QGTFTSDYSKYLDEKRQKEFVNWLLAQKC
modifications: bridge 15-19; not fully specified
B11: triple agonist of SEQ ID NO: 91 (peptide)
peptide: {Acetyl(2-(4-imidazolyl))}-[Aib]EGTFTSDYSIAMDEIHQKDFVDWLLAEKC
modifications: bridge 15-19; not fully specified
B12: triple agonist of SEQ ID NO: 86 (peptide)
peptide: {Acetyl(2-(4-imidazolyl))}-[Aib]QGTFTSDYSKYLDEKRQKEFVNWLLAQC
modifications: bridge 15-19; not fully specified
B13: triple agonist of SEQ ID NO: 85 (peptide)
peptide: {Acetyl(2-(4-imidazolyl))}-[Aib]QGTFTSDYSIAMDEIHQKDFVNWLLAQC
modifications: bridge 15-19; not fully specified
B14: triple agonist of SEQ ID NO: 80 (peptide)
peptide: H[Aib]EGTFTSDYSIAMDEIHQKDFVDWLLAEKC
modifications: bridge 16-20; not fully specified
B15: triple agonist of SEQ ID NO: 94 (peptide)
peptide: {Acetyl(2-(4-imidazolyl))}-[Aib]QGTFTSDYSIAMDEIHQKDFVNWLLNTKC
modifications: bridge 15-19; not fully specified
B16: triple agonist of SEQ ID NO: 78 (peptide)
peptide: H[Aib]QGTFTSDYSKYLDEKRQKEFVQWLLDTKC
modifications: bridge 16-20; not fully specified
B17: triple agonist of SEQ ID NO: 90 (peptide)
peptide: {Acetyl(2-(4-imidazolyl))}-[Aib]EGTFTSDYSIAMDEIHQKDFVNWLLAQKC
modifications: bridge 15-19; not fully specified
B18: triple agonist of SEQ ID NO: 76 (peptide)
peptide: Y[Aib]QGTFTSDYSKYLDEKRAKDFVQWLLDHHPSSGQPPPSC
modifications: bridge 16-20; not fully specified
B19: triple agonist of SEQ ID NO: 8 (peptide)
peptide: H[Aib]QGTFTSDVSKYLDGQAAQEFVAWLLKGC
modifications: not fully specified
B20: triple agonist of SEQ ID NO: 71 (peptide)
peptide: Y[Aib]QGTFTSDYSKYLDERACKDFVQWLLDHHPSSGQPPPS
modifications: bridge 16-20; not fully specified
B21: triple agonist of SEQ ID NO: 89 (peptide)
peptide: {Acetyl(2-(4-imidazolyl))}-[Aib]QGTFTSDYSKYLDEKRQKEFVQWLLDTKC
modifications: bridge 15-19; not fully specified
B22: triple agonist of SEQ ID NO: 77 (peptide)
peptide: Y[Aib]QGTFTSDYSKYLDEKAAKDFVQWLLDHHPSSGQPPPSC
modifications: bridge 16-20; not fully specified
B23: triple agonist of SEQ ID NO: 10 (peptide)
peptide: H[Aib]QGTFTSDVSKYLDGQAAQEFVAWLLAGGGPSSGAPPPSC
modifications: not fully specified
B24: triple agonist of SEQ ID NO: 79 (peptide)
peptide: H[Aib]EGTFTSDYSIAMDEIHQKDFVNWLLAQKC
modifications: bridge 16-20; not fully specified
B25: triple agonist of SEQ ID NO: 81 (peptide)
peptide: {Acetyl(2-(4-imidazolyl))}-[Aib]QGTFTSDYSKYLDEKRQKEFVQWLLNTC
modifications: bridge 15-19; not fully specified
B26: triple agonist of SEQ ID NO: 84 (peptide)
peptide: {Acetyl(2-(4-imidazolyl))}-[Aib]EGTFTSDYSIAMDEIHQKDFVDWLLAEC
modifications: bridge 15-19; not fully specified

What was measured:
Assay in all cases: cell-based or functional assay
[1] = biological target: T1, human GIP receptor (human, UniProt P48546 22-466)
T1 sequence (looked up): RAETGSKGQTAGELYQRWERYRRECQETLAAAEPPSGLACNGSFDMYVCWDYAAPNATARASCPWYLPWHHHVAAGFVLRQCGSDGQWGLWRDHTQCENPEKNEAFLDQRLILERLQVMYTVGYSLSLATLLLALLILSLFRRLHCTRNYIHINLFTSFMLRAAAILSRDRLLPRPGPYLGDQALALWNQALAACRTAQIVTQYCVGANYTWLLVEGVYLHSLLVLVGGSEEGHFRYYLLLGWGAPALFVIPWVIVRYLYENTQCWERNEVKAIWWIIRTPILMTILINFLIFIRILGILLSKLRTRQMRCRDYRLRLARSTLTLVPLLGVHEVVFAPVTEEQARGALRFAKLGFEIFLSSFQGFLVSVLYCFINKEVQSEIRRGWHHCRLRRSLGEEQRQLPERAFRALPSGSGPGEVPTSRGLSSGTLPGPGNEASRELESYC

[2] = biological target: human GCG receptor (human, UniProt P47871 26-477)
Sequence of human GCG receptor (P47871 26-477): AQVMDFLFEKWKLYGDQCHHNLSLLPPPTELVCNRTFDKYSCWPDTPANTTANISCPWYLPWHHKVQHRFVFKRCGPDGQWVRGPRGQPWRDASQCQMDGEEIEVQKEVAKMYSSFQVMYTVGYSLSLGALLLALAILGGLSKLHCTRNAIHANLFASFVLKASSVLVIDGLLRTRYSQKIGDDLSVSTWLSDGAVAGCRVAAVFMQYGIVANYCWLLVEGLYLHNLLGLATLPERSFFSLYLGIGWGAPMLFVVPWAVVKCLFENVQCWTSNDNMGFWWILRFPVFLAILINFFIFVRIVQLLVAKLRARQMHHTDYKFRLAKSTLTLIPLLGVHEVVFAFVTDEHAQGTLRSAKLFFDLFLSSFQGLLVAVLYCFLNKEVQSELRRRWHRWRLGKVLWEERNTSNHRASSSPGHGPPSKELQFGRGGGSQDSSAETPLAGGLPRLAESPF

[3] = biological target: human GLP-1 receptor (human, UniProt P43220 24-463)

Row | Binder | In vitro activity (%) compared with native peptide: vs GIP [1] [%] | In vitro activity (%) compared with native peptide: vs Glucagon [2] [%] | In vitro activity (%) compared with native peptide: vs GLP-1 [3] [%]
1 | B1 | < 0.1 | < 0.1 | 0.9
2 | B2 | 3 | 5.4 | 22.6
3 | B3 | 0.4 | < 0.1 | 0.8
4 | B4 | < 0.1 | 0.3 | 9.6
5 | B5 | 1.6 | 1 | 11.5
6 | B6 | 18 | 8.5 | 35.1
7 | B7 | < 0.1 | 1.1 | 9.5
8 | B8 | 1 | 0.9 | 12.9
9 | B9 | < 0.1 | 0.13 | 32.1
10 | B10 | 0.7 | 0.3 | 5.7
11 | B11 | 0.3 | 16.8 | 31.9
12 | B12 | 0.2 | 0.4 | 28.4
13 | B13 | 0.3 | < 0.1 | 4.3
14 | B14 | 0.1 | 0 | 8.1
15 | B15 | < 0.1 | < 0.1 | 0.5
16 | B16 | 0.12 | 14 | 51
17 | B17 | < 0.1 | < 0.1 | 7.4
18 | B18 | 11.7 | 47.6 | 10.3
19 | B19 | < 0.1 | 0.1 | 14.2
20 | B20 | 94.7 | 12.7 | 90.1
21 | B21 | < 0.1 | 0.7 | 7.1
22 | B22 | 35.5 | 12.2 | 38.7
23 | B23 | < 0.1 | < 0.1 | 46
24 | B24 | 1.4 | 4.9 | 41.5
25 | B25 | < 0.1 | 0.3 | 7.8
26 | B26 | < 0.1 | < 0.1 | 4.2
